The subject of series [1] is BamHI. Nature of the series: FP. To be noted: negative control, little affinity.
The test system of series [2] is GFP. Nature of the series: FP. The note with it: negative control, little affinity.

pKd: −log10 of the molar value. Bounds are passed on as bounds.

Usually pKd stands for −log10 of the Kd, conventionally taken in molar units. Lower therefore signals a high Kd. On to random-sequence RNA, for which the negative logarithm of the Kd (pKd) in series [1] and in series [2] was less than 5.40 in each case.
